In PMC10697951:

Tests used:
Assay in all cases: MST
[1] = system: SUV420H1(1-390) R220A (human); details: 40 uM SAM; text says NCP H2A, legend H4K20M; histone H4 K20M; MST: 20 mM HEPES pH 7.5, 50 mM NaCl (listed twice), 50 mM KCl, 1 mg/mL BSA, 0.05% Tween-20, 40 uM SAM, 2 mM DTT, room temperature; EMSA: 25 mM HEPES pH 7.5 …
[2] = system: SUV420H1(1-390) R352A (human); details: 40 uM SAM; text says NCP H2A, legend H4K20M; histone H4 K20M; MST: 20 mM HEPES pH 7.5, 50 mM NaCl (listed twice), 50 mM KCl, 1 mg/mL BSA, 0.05% Tween-20, 40 uM SAM, 2 mM DTT, room temperature; EMSA: 25 mM HEPES pH 7.5 …
[3] = system: SUV420H1(1-390) K258A (human); details: histone H4 K20M; MST: 20 mM HEPES pH 7.5, 50 mM NaCl (listed twice), 50 mM KCl, 1 mg/mL BSA, 0.05% Tween-20, 40 uM SAM, 2 mM DTT, room temperature; EMSA: 25 mM HEPES pH 7.5 …
[4] = system: SUV420H1(1-390) S283L (human); details: histone H4 K20M; MST: 20 mM HEPES pH 7.5, 50 mM NaCl (listed twice), 50 mM KCl, 1 mg/mL BSA, 0.05% Tween-20, 40 uM SAM, 2 mM DTT, room temperature; EMSA: 25 mM HEPES pH 7.5 …
[5] = system: SUV420H1(1-390) Y349A (human); details: 40 uM SAM; text says NCP H2A, legend H4K20M; histone H4 K20M; MST: 20 mM HEPES pH 7.5, 50 mM NaCl (listed twice), 50 mM KCl, 1 mg/mL BSA, 0.05% Tween-20, 40 uM SAM, 2 mM DTT, room temperature; EMSA: 25 mM HEPES pH 7.5 …
[6] = system: SUV420H1(1-390) S255F (human); details: histone H4 K20M; MST: 20 mM HEPES pH 7.5, 50 mM NaCl (listed twice), 50 mM KCl, 1 mg/mL BSA, 0.05% Tween-20, 40 uM SAM, 2 mM DTT, room temperature; EMSA: 25 mM HEPES pH 7.5 …
[7] = system: SUV420H1(1-390) R257A (human); details: histone H4 K20M; MST: 20 mM HEPES pH 7.5, 50 mM NaCl (listed twice), 50 mM KCl, 1 mg/mL BSA, 0.05% Tween-20, 40 uM SAM, 2 mM DTT, room temperature; EMSA: 25 mM HEPES pH 7.5 …
[8] = system: SUV420H1(1-390) R357H (human); details: 40 uM SAM; text says NCP H2A, legend H4K20M; histone H4 K20M; MST: 20 mM HEPES pH 7.5, 50 mM NaCl (listed twice), 50 mM KCl, 1 mg/mL BSA, 0.05% Tween-20, 40 uM SAM, 2 mM DTT, room temperature; EMSA: 25 mM HEPES pH 7.5 …
[9] = system: SUV420H1(1-390) R286A (human); details: histone H4 K20M; MST: 20 mM HEPES pH 7.5, 50 mM NaCl (listed twice), 50 mM KCl, 1 mg/mL BSA, 0.05% Tween-20, 40 uM SAM, 2 mM DTT, room temperature; EMSA: 25 mM HEPES pH 7.5 …
[10] = system: SUV420H1(1-390) R357A (human); details: 40 uM SAM; text says NCP H2A, legend H4K20M; histone H4 K20M; MST: 20 mM HEPES pH 7.5, 50 mM NaCl (listed twice), 50 mM KCl, 1 mg/mL BSA, 0.05% Tween-20, 40 uM SAM, 2 mM DTT, room temperature; EMSA: 25 mM HEPES pH 7.5 …

## NCP H2A, H4K20M
[1]
  Kd: 0.093 µM
[2]
  Kd: 0.22 µM
[3]
  Kd: 0.112 µM
[4]
  Kd: 0.085 µM
[5]
  Kd: 0.108 µM
[6]
  Kd: 0.182 µM
[7]
  Kd: 0.144 µM
[8]
  Kd: 0.083 µM
[9]
  Kd: 0.323 µM
[10]
  Kd: 0.213 µM
